Data published in paper PMC10444775 (Scientific Reports, 2023).

Target: SARS-CoV-2 PreS Spike ECD protein, biotinylated via a C-terminal Avi tag (SARS-CoV-2, Wuhan wild type, K986P | V987P | 682-685 RRAR to GSAS, biotin on the Avi tag)
Assay: SPR
Conditions: both partners purified

B1: 7A9 VHH (VHH)
VHH: QVQLVESGGGLVQAGGSLRLSCSASGGTASRSAMGWFRQAPGKEREFVAGISRRNSGSTYVADSYEDSVKGRFTISRDNAKNTIYLQMNSLKPEDTAVYYCAAEPTLGWYVPRRSVEYEYWGQGTQVTVSS
notes: also called VHH 7A9; 7A9 VHH monomer; source: ExpiCHO, transiently transfected, purified
- Kd: 0.22 nM
